Measured values as given in article PMC12491500.

Target: His-tagged SA2107 labelled with ATTO 488 (SA2107_(488)) (Staphylococcus aureus)
Assay: flow-induced dispersion analysis (FIDA); PreMix method; 20 nM SA2107_(488) as indicator, preincubated 10 min with 0-2 µM unlabelled ComK1 or ComK2 as analyte; PBS + Tween 0.1%; 25 °C; change of the apparent hydrodynamic radius; three independent experiments

Kd: 420 nM
Substance: His6-tagged ComK2 (recombinant, purified) (natural protein)
